{
  "source": "patent US11959134",
  "about": "“Methods of determining nucleic acid structural information” (Bionano Genomics, Inc.)",
  "key": {"[1]": {"molecular_target": "T1, M.BseCI DNA adenine methyltransferase (UniProt P43423 P43423:1-579)", "T1 sequence (P43423 whole entry, one chain of several)": "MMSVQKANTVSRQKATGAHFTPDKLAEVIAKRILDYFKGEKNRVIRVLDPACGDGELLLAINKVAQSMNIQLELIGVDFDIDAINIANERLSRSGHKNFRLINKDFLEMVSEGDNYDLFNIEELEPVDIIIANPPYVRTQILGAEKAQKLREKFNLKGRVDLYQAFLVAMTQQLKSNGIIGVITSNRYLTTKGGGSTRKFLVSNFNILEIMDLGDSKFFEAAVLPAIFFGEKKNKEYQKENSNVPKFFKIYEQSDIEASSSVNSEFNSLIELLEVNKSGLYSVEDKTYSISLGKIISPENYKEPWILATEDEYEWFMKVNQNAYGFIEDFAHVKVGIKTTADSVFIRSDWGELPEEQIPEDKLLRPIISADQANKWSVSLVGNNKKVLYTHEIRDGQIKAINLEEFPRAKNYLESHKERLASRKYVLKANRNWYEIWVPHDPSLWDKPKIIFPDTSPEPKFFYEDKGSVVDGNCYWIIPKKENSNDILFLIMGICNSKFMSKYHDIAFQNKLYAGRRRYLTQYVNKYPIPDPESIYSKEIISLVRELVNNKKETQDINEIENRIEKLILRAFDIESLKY", "test": "labeling with Atto532AdoY, 22x enzyme excess over sites, 55 C, 5 h; labeled DNA assembled into single contig aligned to reference", "method": "A solution (40 ul) of E. coli DNA (500 ng), M.BseCI (22× excess over DNA sites) and Atto532AdoY (40 uM) in 10 mM Tris-HCl, 10 mM EDTA, and 5 mM beta-mercaptoethanol, pH 7.4 were mixed with 4 uL NaOH (0.1M). The solution was incubated for 5 h at 55° C. Proteinase K (1 ul) was added and the solution incubated for 1 h at 37° C. The DNA was dialyzed against 1×TE buffer and stained with YOYO-1 to a final concentration of 3.5-5 ng/ul.\nA freshly prepared solution (4 ul) of 4-nitrobenzoic alcohol (1.4 mM), Trolox (1.4 mM), protocatechuate-3,4-dioxygenase (0.36 uM), protocatechuic acid (50 ug) was mixed with stained E. coli DNA of Example 7, 1× flow buffer and Tris (25 mM) and NaCl (10 mM) were added. The sample was loaded onto an IrysChip™ and imaged using the Irys™ instrument.\nThe E. coli DNA of Examples 7 and 8 was assembled and compared to a reference genome. The labeled E. coli DNA assembled into a single contig (FIG. 5, right contig) and aligned to a reference contig sequence (FIG. 5, left contig)."}, "[2]": {"molecular_target": "T1, M.BseCI DNA adenine methyltransferase", "test": "sequence-specific covalent labeling with Atto532AdoY cofactor seen in nanochannels; 285 nM enzyme, 10 mM Tris-HCl, 10 mM EDTA, 5 mM beta-mercaptoethanol, pH 7.4, 55 C, 5 h", "method": "A solution (40 ul) of 2 uL T7 DNA (500 ng/ul), M.BseCI (285 nM) and Atto532AdoY (40 uM) in 10 mM Tris-HCl, 10 mM EDTA, and 5 mM β-mercaptoethanol, pH 7.4 were mixed with 4 uL NaOH (0.1M). The solution was incubated for 5 h at 55° C. Proteinase K (1 ul) was added and the solution incubated for 1 h at 37° C. DNA was ethanol precipitated and redissolved in 1×TE buffer (10 ul).\nFor DNA staining of the T7 DNA labeled in Example 5, above, a solution (50 ul) of DNA (10 ng/ul), YOYO-1 (500 nM) in 1× flow buffer was incubated for 4 h at 4° C. Subsequently, a freshly prepared solution (4 ul) of 4-nitrobenzoic alcohol (1.4 mM), Trolox (1.4 mM), protocatechuate-3,4-dioxygenase (0.36 uM), protocatechuic acid (50 ug) was mixed with 10 uL of the stained DNA (above) and was loaded onto an IrysChip™ and imaged using the Irys™ instrument. FIG. 4 represents an example of imaged, labeled T7 DNA molecules."}},
  "data": [
    {"binder": "E. coli genomic DNA containing M.BseCI sites (dsDNA) DNA 1: ATCGAT DNA 2: ATCGAT", "values": [
      {"measurement": "binding result", "setting": "[1]", "result": "binds"}
    ]},
    {"binder": "T7 phage genomic DNA containing three M.BseCI sites (dsDNA) DNA 1: ATCGAT DNA 2: ATCGAT", "values": [
      {"measurement": "binding result", "setting": "[2]", "result": "binds"}
    ]}
  ]
}
